Measured values from paper PMC10123104, “YbiB: a novel interactor of the GTPase ObgE” (Nucleic Acids Research, 2023).
Where “and” joins values, the source holds several entries; their conditions need not be identical. Identical values can stand only once.

B1: ObgE C-terminal peptide4-AA (peptide)
peptide: LEEIAEEDDEDADDDADEDD
notes: free termini (H-...-OH); also called SBL-OBGE-06; source: synthetic peptide (in-house Fmoc SPPS, HPLC purified)
B3: YbiB (E. coli TrpD2 protein), N-terminally His6-tagged, wild type (natural protein, UniProt P30177 1-320, looked up)
chain: MDYRKIIKEIGRGKNHARDLDRDTARGLYAHMLNGEVPDLELGGVLIALRIKGEGEAEMLGFYEAMQNHTIKLTPPAGKPMPIVIPSYNGARKQANLTPLLAILLHKLGFPVVVHGVSEDPTRVLTETIFELMGITPTLHGGQAQAKLDEHQPVFMPVGAFCPPLEKQLAMRWRMGVRNSAHTLAKLATPFAEGEALRLSSVSHPEYIGRVAKFFSDIGGRALLMHGTEGEVYANPQRCPQINLIDREGMRVLYEKQDTAGSELLPQAKDPETTAQWIERCLAGSEPIPESLKIQMACCLVATGEAATISDGLARVNQAF
notes: YbiB, TrpD2 family protein of Escherichia coli, open reading frame amplified from BW25113 genomic DNA; cloned in pET28a (NheI/EcoRI) behind His6 and a thrombin site; its numbers there are shifted by 1; No thrombin cleavage is described; also called YbiB WT; YbiB dimer; source: E. coli BL21 (DE3) pLysS, purified (HisTrap FF, Superdex 200); not shown: His6, N-terminal, kept
B4: full-length E. coli YbiB protein, N-terminally His6-tagged (natural protein, UniProt P30177 1-320, looked up)
chain: MDYRKIIKEIGRGKNHARDLDRDTARGLYAHMLNGEVPDLELGGVLIALRIKGEGEAEMLGFYEAMQNHTIKLTPPAGKPMPIVIPSYNGARKQANLTPLLAILLHKLGFPVVVHGVSEDPTRVLTETIFELMGITPTLHGGQAQAKLDEHQPVFMPVGAFCPPLEKQLAMRWRMGVRNSAHTLAKLATPFAEGEALRLSSVSHPEYIGRVAKFFSDIGGRALLMHGTEGEVYANPQRCPQINLIDREGMRVLYEKQDTAGSELLPQAKDPETTAQWIERCLAGSEPIPESLKIQMACCLVATGEAATISDGLARVNQAF
notes: homodimer; No cleavage of the His6-tag is told; the pull-down names the tag on the protein; also called YbiB WT; TrpD2 protein YbiB; source: E. coli BL21 (DE3) pLysS, purified (HisTrap, SEC); not shown: His6, N-terminal, kept

Key:
[1] = target: B3; test: ITC; MicroCal iTC200, 25°C, 20 mM HEPES pH 7.5, 150 mM NaCl, 5 mM MgCl2, 1 mM β-mercaptoethanol; ObgE or ObgE-derived peptide in the sample cell (50-75 µM), YbiB (WT or mutant) in the syringe (500 µM-1.4 mM); 'ligand in cell' function; biphasic isotherms fitted on a 'two sets of sites' model; subunit concentrations; parameters of each individual repeat; conditions: both partners purified
[2] = target: T1, ObgE (E. coli Obg GTPase), N-terminally His6-tagged (E. coli, UniProt P42641 1-390); test: as above; conditions: both partners purified
T1 construct: GTPase ObgE (Obg) of Escherichia coli, 390 residues; also called pET28a-obgE; source: E. coli BL21 (DE3) pLysS, purified (HisTrap FF, alkaline phosphatase treatment, Superdex 75), nucleotide-free; not shown: His6, N-terminal, kept

[3] = target: B1; test: as above; conditions: both partners purified
[4] = target: T2, N-terminally His6-tagged ObgE protein (Escherichia coli Obg) (E. coli, UniProt P42641 1-390); test: ITC; YbiB in the syringe (500 μM to 1.4 mM) titrated into ObgE constructs or ObgE-derived peptides in the cell (50-75 μM); 25°C; 20 mM HEPES pH 7.5, 150 mM NaCl, 5 mM MgCl2, 1 mM β-mercaptoethanol; 'two sets of sites' model with 'ligand in cell' for biphasic isotherms; subunit concentrations; conditions: both partners purified
T2 construct: GTPase ObgE of Escherichia coli, whole protein, ORF in pET28a; monomer by SEC-MALS; nucleotide-free after alkaline phosphatase treatment; also called full-length ObgE; not shown: His6, N-terminal, kept

[5] = target: T2, N-terminally His6-tagged ObgE protein …; test: SEC-SAXS; pre-formed YbiB-ObgE complex (mixed 1:3, isolated on Superdex 200, 7.6 mg/ml); 20 mM HEPES pH 7.5, 150 mM NaCl, 5 mM MgCl2, 2 mM DTT, 5% glycerol; molar mass by Bayesian inference; conditions: both partners purified
[6] = target: the molecule itself; test: SEC-MALS; Superdex 200 5/150 GL increase; ObgE and YbiB alone at 1.5 mg/ml; YbiB and ObgE mixed 1:3 (20 and 60 μM); 20 mM HEPES pH 7.5, 150 mM NaCl, 5 mM MgCl2, 5% glycerol, 2 mM DTT
[7] = target: T2, N-terminally His6-tagged ObgE protein …; test: as above; conditions: both partners purified
[8] = target: B4; test: ITC; YbiB in the syringe (500 μM to 1.4 mM) titrated into ObgE constructs or ObgE-derived peptides in the cell (50-75 μM); 25°C; 20 mM HEPES pH 7.5, 150 mM NaCl, 5 mM MgCl2, 1 mM β-mercaptoethanol; 'two sets of sites' model with 'ligand in cell' for biphasic isotherms; subunit concentrations; conditions: both partners purified

T1 sequence (P42641 whole entry): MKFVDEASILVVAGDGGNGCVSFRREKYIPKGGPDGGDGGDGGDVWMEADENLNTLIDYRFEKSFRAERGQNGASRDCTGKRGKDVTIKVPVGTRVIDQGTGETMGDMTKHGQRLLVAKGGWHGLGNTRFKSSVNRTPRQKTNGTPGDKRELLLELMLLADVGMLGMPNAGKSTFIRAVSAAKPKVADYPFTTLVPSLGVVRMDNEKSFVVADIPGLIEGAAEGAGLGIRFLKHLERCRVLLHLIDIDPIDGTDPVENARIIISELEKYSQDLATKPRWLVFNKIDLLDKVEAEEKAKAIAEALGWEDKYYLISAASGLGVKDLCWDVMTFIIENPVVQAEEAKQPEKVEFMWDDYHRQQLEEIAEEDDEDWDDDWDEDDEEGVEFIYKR
T2 sequence (P42641 whole entry): as above

Binder: B1
- Kd [1]: 10 µM and 15 µM

B2: YbiB Arg92Glu, N-terminally His6-tagged (natural protein, E. coli, UniProt P30177 1-320, looked up)
chain: MDYRKIIKEIGRGKNHARDLDRDTARGLYAHMLNGEVPDLELGGVLIALRIKGEGEAEMLGFYEAMQNHTIKLTPPAGKPMPIVIPSYNGAEKQANLTPLLAILLHKLGFPVVVHGVSEDPTRVLTETIFELMGITPTLHGGQAQAKLDEHQPVFMPVGAFCPPLEKQLAMRWRMGVRNSAHTLAKLATPFAEGEALRLSSVSHPEYIGRVAKFFSDIGGRALLMHGTEGEVYANPQRCPQINLIDREGMRVLYEKQDTAGSELLPQAKDPETTAQWIERCLAGSEPIPESLKIQMACCLVATGEAATISDGLARVNQAF
notes: no measurement of its oligomeric state is reported; also called YbiB R92E; pET28a-ybiBR92E; source: E. coli BL21 (DE3) pLysS, purified (HisTrap FF, Superdex 200); not shown: His6, N-terminal, kept
- stoichiometry N [2]: 0.71 and 0.94 and 1.29

Binder: B3
- stoichiometry N [3]: 0.66 and 0.632 and 0.64

Binder: B4
- KD of the first (high-affinity) binding event, two sets of sites [4]: 0.022 ± 0.001 µM
- KD of the second (low-affinity) binding event, two sets of sites [4]: 5 ± 1 µM
- stoichiometry N [5]: 2 ObgE per YbiB dimer
- stoichiometry N [6]: 2
- stoichiometry N [7]: ~2 ObgE per YbiB dimer

B5: YbiB Arg123Glu, N-terminally His6-tagged (natural protein, E. coli, UniProt P30177 1-320, looked up)
chain: MDYRKIIKEIGRGKNHARDLDRDTARGLYAHMLNGEVPDLELGGVLIALRIKGEGEAEMLGFYEAMQNHTIKLTPPAGKPMPIVIPSYNGARKQANLTPLLAILLHKLGFPVVVHGVSEDPTEVLTETIFELMGITPTLHGGQAQAKLDEHQPVFMPVGAFCPPLEKQLAMRWRMGVRNSAHTLAKLATPFAEGEALRLSSVSHPEYIGRVAKFFSDIGGRALLMHGTEGEVYANPQRCPQINLIDREGMRVLYEKQDTAGSELLPQAKDPETTAQWIERCLAGSEPIPESLKIQMACCLVATGEAATISDGLARVNQAF
notes: no measurement of its oligomeric state is reported; also called YbiB R123E; pET28a-ybiBR123E; source: E. coli BL21 (DE3) pLysS, purified (HisTrap FF, Superdex 200); not shown: His6, N-terminal, kept
- Kd [2]: 5 µM and 4 µM and 10 µM
- stoichiometry N [2]: 1.14 and 0.99

B6: ObgE C-terminal peptide4 (residues 361-380 of ObgE) (peptide)
peptide: LEEIAEEDDEDWDDDWDEDD
notes: residues 375-380 (DWDEDD) are resolved in the crystal structure; also called peptide4-WW; SBL-OBGE-03; source: synthetic peptide (Fmoc SPPS, HPLC purified)
- binding result [8]: binds

B7: peptide4-AA (variant of ObgE peptide4 with both Trp residues substituted by Ala) (peptide, UniProt P42641 361-380, looked up)
peptide: LEEIAEEDDEDADDDADEDD
notes: source: synthetic peptide (Fmoc SPPS, HPLC purified)
- Kd [8]: ~10 µM
